Measurements as given in IntAct's records for PubMed 24630722.

B1: Interferon-inducible protein AIM2 (Homo sapiens), O14862 (parent)
chain: MESKYKEILLLTGLDNITDEELDRFKFFLSDEFNIATGKLHTANRIQVATLMIQNAGAVSAVMKTIRIFQKLNYMLLAKRLQEEKEKVDKQYKSVTKPKPLSQAEMSPAASAAIRNDVAKQRAAPKVSPHVKPEQKQMVAQQESIREGFQKRCLPVMVLKAKKPFTFETQEGKQEMFHATVATEKEFFFVKVFNTLLKDKFIPKRIIIIARYYRHSGFLEVNSASRVLDAESDQKVNVPLNIIRKAGETPKINTLQTQPLGTIVNGLFVVQKVTEKKKNILFDLSDNTGKMEVLGVRNEDTMKCKEGDKVRLTFFTLSKNGEKLQLTSGVHSTIKVIKAKKKT

Variants of: B1
Details: with asc_human PYCARD

Row | effect of a mutation on the interaction | Variant
1 | disrupting interaction strength | MESKYKEILLLTGLDNITDEELDRFKFFLSDEFNIATGKLHTANRIQVATLMIQNAGAVSAVMKTIRIFQKLNRMLLAKRLQEEKEKVDKQYKSVTKPKPLSQAEMSPAASAAIRNDVAKQRAAPKVSPHVKPEQKQMVAQQESIREGFQKRCLPVMVLKAKKPFTFETQEGKQEMFHATVATEKEFFFVKVFNTLLKDKFIPKRIIIIARYYRHSGFLEVNSASRVLDAESDQKVNVPLNIIRKAGETPKINTLQTQPLGTIVNGLFVVQKVTEKKKNILFDLSDNTGKMEVLGVRNEDTMKCKEGDKVRLTFFTLSKNGEKLQLTSGVHSTIKVIKAKKKT [Y74R]
2 | disrupting interaction strength | MESKYKEILLLTGLDNITDEELDRFKGFLSDEFNIATGKLHTANRIQVATLMIQNAGAVSAVMKTIRIFQKLNYMLLAKRLQEEKEKVDKQYKSVTKPKPLSQAEMSPAASAAIRNDVAKQRAAPKVSPHVKPEQKQMVAQQESIREGFQKRCLPVMVLKAKKPFTFETQEGKQEMFHATVATEKEFFFVKVFNTLLKDKFIPKRIIIIARYYRHSGFLEVNSASRVLDAESDQKVNVPLNIIRKAGETPKINTLQTQPLGTIVNGLFVVQKVTEKKKNILFDLSDNTGKMEVLGVRNEDTMKCKEGDKVRLTFFTLSKNGEKLQLTSGVHSTIKVIKAKKKT [F27G]
3 | decreasing interaction strength | MESKYKEILLLTGLDNITDEELDRFKFFLSDEFNIATGELHTANRIQVATLMIQNAGAVSAVMKTIRIFQKLNYMLLAKRLQEEKEKVDKQYKSVTKPKPLSQAEMSPAASAAIRNDVAKQRAAPKVSPHVKPEQKQMVAQQESIREGFQKRCLPVMVLKAKKPFTFETQEGKQEMFHATVATEKEFFFVKVFNTLLKDKFIPKRIIIIARYYRHSGFLEVNSASRVLDAESDQKVNVPLNIIRKAGETPKINTLQTQPLGTIVNGLFVVQKVTEKKKNILFDLSDNTGKMEVLGVRNEDTMKCKEGDKVRLTFFTLSKNGEKLQLTSGVHSTIKVIKAKKKT [K39E]
4 | disrupting interaction strength | MESKYKEILLLTGLRNITDEELDRFKFFLSDEFNIATGKLHTANRIQVATLMIQNAGAVSAVMKTIRIFQKLNYMLLAKRLQEEKEKVDKQYKSVTKPKPLSQAEMSPAASAAIRNDVAKQRAAPKVSPHVKPEQKQMVAQQESIREGFQKRCLPVMVLKAKKPFTFETQEGKQEMFHATVATEKEFFFVKVFNTLLKDKFIPKRIIIIARYYRHSGFLEVNSASRVLDAESDQKVNVPLNIIRKAGETPKINTLQTQPLGTIVNGLFVVQKVTEKKKNILFDLSDNTGKMEVLGVRNEDTMKCKEGDKVRLTFFTLSKNGEKLQLTSGVHSTIKVIKAKKKT [D15R]
5 | decreasing interaction strength | MESKYKEILLLTGLDNITDEELDRFKFFLSDEFNIATEKLHTANRIQVATLMIQNAGAVSAVMKTIRIFQKLNYMLLAKRLQEEKEKVDKQYKSVTKPKPLSQAEMSPAASAAIRNDVAKQRAAPKVSPHVKPEQKQMVAQQESIREGFQKRCLPVMVLKAKKPFTFETQEGKQEMFHATVATEKEFFFVKVFNTLLKDKFIPKRIIIIARYYRHSGFLEVNSASRVLDAESDQKVNVPLNIIRKAGETPKINTLQTQPLGTIVNGLFVVQKVTEKKKNILFDLSDNTGKMEVLGVRNEDTMKCKEGDKVRLTFFTLSKNGEKLQLTSGVHSTIKVIKAKKKT [G38E]
6 | disrupting interaction strength | MESKYKEILLLTGLDNITDEELDEFKFFLSDEFNIATGKLHTANRIQVATLMIQNAGAVSAVMKTIRIFQKLNYMLLAKRLQEEKEKVDKQYKSVTKPKPLSQAEMSPAASAAIRNDVAKQRAAPKVSPHVKPEQKQMVAQQESIREGFQKRCLPVMVLKAKKPFTFETQEGKQEMFHATVATEKEFFFVKVFNTLLKDKFIPKRIIIIARYYRHSGFLEVNSASRVLDAESDQKVNVPLNIIRKAGETPKINTLQTQPLGTIVNGLFVVQKVTEKKKNILFDLSDNTGKMEVLGVRNEDTMKCKEGDKVRLTFFTLSKNGEKLQLTSGVHSTIKVIKAKKKT [R24E]
7 | disrupting interaction strength | MESKYKEILAATGLDNITDEELDRFKFFLSDEFNIATGKLHTANRIQVATLMIQNAGAVSAVMKTIRIFQKLNYMLLAKRLQEEKEKVDKQYKSVTKPKPLSQAEMSPAASAAIRNDVAKQRAAPKVSPHVKPEQKQMVAQQESIREGFQKRCLPVMVLKAKKPFTFETQEGKQEMFHATVATEKEFFFVKVFNTLLKDKFIPKRIIIIARYYRHSGFLEVNSASRVLDAESDQKVNVPLNIIRKAGETPKINTLQTQPLGTIVNGLFVVQKVTEKKKNILFDLSDNTGKMEVLGVRNEDTMKCKEGDKVRLTFFTLSKNGEKLQLTSGVHSTIKVIKAKKKT [L10A;L11A]
